Reference: publication PMC5766566, “Characterization of human small heat shock protein HSPB1 α-crystallin domain localized mutants associated with hereditary motor neuron diseases” (Scientific Reports, 2018)

What was measured:
Settings in all cases: both partners purified
human HSPB1 S135F mutant [1] = target: T1, human HSPB1 S135F mutant (human, UniProt P04792 1-205, S135F); assay: cross-linking; disulfide cross-linking of mixtures: 50 μM of each protein in 50 mM sodium phosphate pH 7.5, 100 mM NaCl, 5 mM DTT overnight at 37 °C, then dialysis without DTT at 20 °C for 24 h; non-reducing SDS-PAGE
T1 construct: HSPB1 (HSP27), human, with the autosomal dominant Charcot-Marie-Tooth mutation S135F; Disease mutation found in patients; Probably the whole protein; SUMO carrier probably removed (subtractive IMAC); The abstract once prints R135F for this mutant; source: recombinant (pET23b or pETHSUK construct), expressed as described earlier; purified (ammonium sulfate fractionation, anion-exchange, SEC; or …)
T1 sequence (P04792 whole entry S135F): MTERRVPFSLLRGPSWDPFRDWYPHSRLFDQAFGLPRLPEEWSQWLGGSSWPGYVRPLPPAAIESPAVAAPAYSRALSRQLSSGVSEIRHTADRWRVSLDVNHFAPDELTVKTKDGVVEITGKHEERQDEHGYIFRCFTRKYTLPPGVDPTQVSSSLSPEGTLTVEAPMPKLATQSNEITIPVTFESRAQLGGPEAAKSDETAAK

human HSPB1 R127W mutant [2] = target: T2, human HSPB1 R127W mutant (human, UniProt P04792 1-205, R127W); assay: as above
T2 construct: HSPB1 (HSP27), human, with the autosomal dominant Charcot-Marie-Tooth mutation R127W; Disease mutation found in patients; Probably the whole protein; SUMO carrier probably removed (subtractive IMAC); source: recombinant (pET23b or pETHSUK construct), expressed as described earlier
T2 sequence (P04792 whole entry R127W): as the sequence (P04792 whole entry S135F) above, with R127W, F135S counted along it

[3] = target: T3, human small heat shock protein HSPB1, wild type (human, UniProt P04792 1-205); assay: as above
T3 construct: HSPB1 (HSP27), human; six Trp); Two constructs and two purification routes were used and are said to give indistinguishable proteins; Polydisperse oligomer, on average 23 subunits by SEC-SAXS; also called HSP27; WT HSPB1; source: recombinant (pET23b or pETHSUK construct), expressed as described earlier; purified (ammonium sulfate fractionation, anion-exchange, SEC; or subtractive IMAC, …
T3 sequence (P04792 whole entry): as the sequence (P04792 whole entry S135F) above, with F135S counted along it

[4] = target: T3, human small heat shock protein HSPB1, …; assay: SEC; equimolar mixture, 30 μM per monomer of each sHSP in buffer S, preincubated at 42 °C for 1 hr, then Superdex 200 HR
human HSPB1 S135F mutant [5] = target: T1, human HSPB1 S135F mutant; assay: SEC; equimolar mixture, 30 μM per monomer of each sHSP in buffer S, preincubated at 4 °C for 1 hr, then Superdex 200 HR
human HSPB1 R127W mutant [6] = target: T2, human HSPB1 R127W mutant; assay: as above

Measured: binding result

B1: human HSPB6 C46S/E116C double mutant (natural protein, UniProt O14558 1-160, looked up)
chain: MEIPVPVQPSWLRRASAPLPGLSAPGRLFDQRFGEGLLEAELAALSPTTLAPYYLRAPSVALPVAQVPTDPGHFSVLLDVKHFSPEEIAVKVVGEHVEVHARHEERPDEHGFVARCFHRRYRLPPGVDPAAVTSALSPEGVLSIQAAPASAQAPPPAAAK
notes: HSPB6 (HSP20), human, double mutant C46S/E116C made for disulfide cross-linking
binds: human HSPB1 S135F mutant [1] | human HSPB1 R127W mutant [2] | [3]

B2: human HSPB6, wild type (natural protein, UniProt O14558 1-160, looked up)
chain: MEIPVPVQPSWLRRASAPLPGLSAPGRLFDQRFGEGLLEAELAALCPTTLAPYYLRAPSVALPVAQVPTDPGHFSVLLDVKHFSPEEIAVKVVGEHVEVHARHEERPDEHGFVAREFHRRYRLPPGVDPAAVTSALSPEGVLSIQAAPASAQAPPPAAAK
notes: HSPB6 (HSP20), human small heat shock protein; also called HSP20; WT HSPB6
binds: [4] | human HSPB1 S135F mutant [5] | human HSPB1 R127W mutant [6]
